# Test system: T1, C=C(OP(=O)(O)O)C(=O)O
# T1 construct: His-tagged from pET-30a(+) HindIII/XhoI, tag removal not mentioned, ~37 kDa on SDS-PAGE; E. coli Rosetta (DE3), Ni resin; tetramer only by homology model
# Experiment: purified protein
# Type: biochemical, uncultured bacterium
# Details: co-substrate D-erythrose 4-phosphate, optimal conditions pH 8.0, 40 °C, CoCl2 0.1 mM in standard assay, PEP range printed as 0.1–0.5 μM
substance,measurement,value
Aro1A (uncultured bacterium),Km,19.58 µM
same,kcat,17.3 s⁻¹

# From paper PMC6362186, “Isolation and biochemical characterization of a metagenome-derived 3-deoxy-D-arabino-heptulosonate-7-phosphate synthase gene from subtropical marine mangrove wetland sediments” (AMB Express, 2019)
